Among the data in the RNAGym collection of RNA variant scans (doi:10.7554/elife.80360) are self-cleavage values, retold here.

First the molecules themselves.
B1: Hairpin Ribozyme (parent)
chain: GUCCUCUUUCACGUGCGCGUGAAAGAGAGAAGUGAACCAGAGAAACACACGUUGUGGUAUAUUACCUGGUA

Variants of B1 are the subject of the data set. The data set is described as follows: self-cleavage, relative activity (ratio to wild type); higher = more cleavage; co-transcriptional.
In the case of C37A A64U, the self-cleavage amounted to 0.392.
The value for C37U A47C was 0.16.
The value for C37A G57U was 0.142; that for C37A G57A was 0.145.
With C37U C48U the figure was 0.144; with A36G G40C, 0.122.
On to A35C G68U, for which the self-cleavage was found to be 0.226.
With C38A A43G the figure was 0.0867; with C38A A43C, 0.0755; with G34U U60G, 1.34.
The value for A35G U63C was 0.233; that for A35G U63G was 0.221; that for A35G U63A was 0.232.
The value for A35G U55C was 0.3; that for A35G G68C was 0.236.
As to C37G G56U, the self-cleavage was determined as 0.0996.
With A35C C48G the figure was 0.131; with C37A U53A, 0.356.
With C37A U53C the figure was 0.515; with A36C C50G, 0.131.
The value for A36C C50A was 0.0511; that for A35C A43C was 0.0885; that for C37G G40C was 0.13.
As to A36G A49G, the self-cleavage was 0.339.
With C37G U55G the figure was 0.119; with A35C G57A, 0.0715.
With A36C A39G the figure was 0.363; with A36C A39U, 0.137.
The value for A36C C65U was 0.118; that for C37G A61U was 0.155; that for A35C U62G was 0.172.
On to A35C U62C, for which the self-cleavage worked out at 0.103.
Turning to A35C U62A, the self-cleavage turned out to be 0.226.
With C37G C66U the figure was 0.286.
The value for A35U G69C was 0.368.
With A36U A41U the figure was 0.868.
Regarding C37A G69C, the self-cleavage amounted to 0.467.
The value for A36C A47C was 0.262; that for A36C A47U was 0.29; that for C37A U52G was 0.224.
With A36U U62G the figure was 0.216.
With A36U U62A, the self-cleavage came out at 0.154.
The value for A36U was 0.602; that for A36G was 1.03.
With A36C the figure was 0.659; with A35U U55C, 0.274.
A35U U55G: the self-cleavage came to 0.281.
The value for A36C G51A was 0.799; that for A36G C48U was 0.228; that for A36G C48A was 0.196.
With C37G G69U, the self-cleavage stood at 0.644.
With A36C C38A the figure was 0.253; with A36C C38G, 0.117.
With A36C C38U the figure was 0.274.
The value for A35C A59U was 0.105; that for A35C A59G was 0.124.
As to A36G A71U, the self-cleavage came to 1.04.
For the variant C38A A41C, the self-cleavage came to 0.183.
The value for C38A A41U was 0.286; that for C37A A41C was 0.365; that for C37A A41U was 0.429.
The value for C37U G69C was 0.364.
The value for A36U G69U was 0.228; that for A36U G69A was 0.173.
As to A36U G69C, the self-cleavage came to 0.127.
The value for A36C G54U was 0.33; that for A36C G54A was 0.467.
The value for A36C G54C was 0.327; that for A36C U58G was 0.595.
With C37U U70G the figure was 0.505; with A36U A49G, 0.281; with C37G G42A, 0.117.
A35C U58C: the self-cleavage came to 0.798.
The value for A36U C66G was 0.338; that for A36U C66U was 0.166; that for C37U U63A was 0.24.
The value for C37U U63C was 0.0912; that for A36U G54U was 0.325.
With A36G U70C the figure was 1.35; with A36G U70A, 1.11; with A35C U55A, 0.177.
In the case of A35C U55G, the self-cleavage worked out at 0.27.
With A35U G40C the figure was 0.185; with A35U G40A, 0.154; with A35G A43C, 0.118.
The value for C37U C66G was 0.195.
Regarding C37U C66A, the self-cleavage amounted to 0.0721.
With C37G G54A the figure was 0.173; with A36G C37A, 0.297.
With A35U A43U, the self-cleavage is 0.0408.
The value for C37U U52C was 0.651; that for C37U U52G was 0.527; that for C37U U62C was 0.0928.
The value for C37G A59C was 0.0453.
As to C37G A59G, the self-cleavage came out at 0.0514.
The value for A35C G42A was 0.129.
With A35C G42U the figure was 0.342; with A36U A61U, 0.213.
Turning to A36U A61G, the self-cleavage was 0.156.
For the variant A35C U70C, the self-cleavage is 1.01.
The value for C37G G51U was 0.405.
With A35C A44G the figure was 0.0678.
With A36C A41U the figure was 0.92.
Take A36C A41C: the self-cleavage was 0.401.
With C37U A44G the figure was 0.112.
The value for C37U A41C was 0.567.
Turning to A36G A44U, the self-cleavage was determined as 0.0711.
Turning to C37A G40A, the self-cleavage came to 0.174.
C37A G40U: the self-cleavage turned out to be 0.129.
The value for C37A G40C was 0.158.
The value for A35G U62G was 0.139; that for C37U A39C was 0.0611; that for A36G G54A was 0.715.
The value for A36G G54C was 0.544; that for A35C G51C was 0.725.
As for A35U A47C, the self-cleavage amounted to 0.258.
The value for A36G U55A was 0.301.
The value for C37G U62C was 0.152.
The value for A35G G54C was 0.444.
For A35U C50U, the self-cleavage stood at 0.18.
Take A35U G54A: the self-cleavage worked out at 0.197.
The value for A35U G54C was 0.0851; that for A35U U70G was 0.874.
With A36G G57A the figure was 0.148; with A36G G57C, 0.124.
With A36U G51C the figure was 0.446; with C37U C65G, 0.163; with C37U C65U, 0.316.
For A36G A39U, the self-cleavage came to 0.517.
The value for A36G A39G was 0.513; that for C37A A61C was 0.136; that for C37A A61U was 0.142.
With C37A C46U, the self-cleavage worked out at 0.0922.
The value for A35U A41C was 0.957; that for A35U A41G was 0.599.
The value for C37A C65G was 0.124; that for C37U A59U was 0.16.
The value for A36U G57U was 0.209.
Regarding A36U G57A, the self-cleavage amounted to 0.108.
With C37G C48G the figure was 0.0962; with A35U U60G, 0.343.
Regarding A35G A71C, the self-cleavage is 1.16.
With A35G A71G the figure was 0.542.
The value for G34U U62G was 0.139; that for A35G U52G was 0.97.
In the case of A36C C46A, the self-cleavage is 0.026.
Regarding A36U A47C, the self-cleavage stood at 0.146.
The value for A35U G57U was 0.311.
The value for A35U G57C was 0.116.
The value for C37U G57U was 0.221; that for C37U G57C was 0.156; that for A36G G42C was 0.347.
Turning to A36G C46G, the self-cleavage worked out at 0.178.
Regarding A35C U63G, the self-cleavage turned out to be 0.286.
In the case of A35U, the self-cleavage worked out at 0.811.
With A35G the figure was 0.931; with A35C, 1.02.
With A36G C66G the figure was 0.288; with A35C A71G, 0.422.
With C37G U63G the figure was 0.129; with C37G U63A, 0.172; with A36G A61U, 0.205.
As to A36G A61G, the self-cleavage was determined as 0.154.
On to A35G G57C, for which the self-cleavage is 0.268.
With A35U A39U the figure was 0.391; with A35U A39G, 0.433.
The value for A36U C48U was 0.0683.
